Assay results reported in US8008547B2, “Glyphosate-N-acetyltransferase (GAT) genes” (E.I. duPont de Nemours, priority 2000, dated 2011).

Test: Standard protocol for determination of kcat and KM (continuous spectrophotometric assay, Acetyl CoA hydrolysis at 235 nm)
Format: biochemical
Conditions: purified protein, about 23° C., 0.2 mM acetyl CoA; for Kcat: 20 mM HEPES pH 6.8, 10% ethylene glycol; for Km: pH 6.8, glyphosate 0.125 to 10 mM
How it was run: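 KM from initial rates over 0.125–10 mM glyphosate, fitted by Lineweaver-Burke transformation of Michaelis-Menten; kcat/KM computed as kcat divided by KM. Continuous spectrophotometric read of acetyl-CoA hydrolysis at 235 nm.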

B1: SEQ ID NO: 301: GAT polypeptide (protein)
chain: MIEVKPINAEDTYEIRHRILRPNQPLEACMYETDLLRSAFHLGGYYRGKLISIASFHQAEHPELEGQKQYQLRGMATLEEYREQKAGSTLIRHAEELLRKKGADLLWCNARTSASGYYKKLGFSEQGEVYDTPPVGPHILMYKKLT
modifications: 13_7A7
notes: GAT polypeptide
- Kcat: 117 min⁻¹
- Km: 0.5 mM

B2: SEQ ID NO: 318: GAT polypeptide (protein)
chain: MIEVKPINAEDTYEIRHRILRPNQPLEACKYETDLLGGTFHLGGYYRGKLISIASFNQAEHPELEGQKQYQLRGMATLEGYREQKAGSTLIRHAEALLRKKGADLLWCNARTSASGYYKKLGFSEQGEVYDTPPVGPHILMYKKLT
modifications: 14_6D4
notes: GAT polypeptide
- Kcat: 256 min⁻¹
- Km: 1 mM

B3: SEQ ID NO: 316: GAT polypeptide (protein)
chain: MIEVKPINAEDTYEIRHRILRPNQPLEACMYETDLLGGTFHLGGYYRGKLVSIASFNQAEHPELEGQKQYQLRGMATLEGYREQKAGSTLIRHAEELLRKKGADLLWCNARTSASGYYKKLGFSEQGEVYDTPPVGPHVLMYKKLT
modifications: 14_6A8
notes: GAT polypeptide
- Kcat: 43.7 min⁻¹
- Km: 0.78 mM

B4: SEQ ID NO: 308: GAT polypeptide (protein)
chain: MIEVKPINAEDTYEIRHRILRPNQPLEACKYETDLLRGAFHLGGYYRGKLVSIASFHQAEHPELEGQKQYQLRGMATLEGYREQKAGSTLIRHAEELLRKKGADLLWCNARTSASGYYKKLGFSEQGEVYDTPPVGPHILMYKKLT
modifications: 14_10H9
notes: GAT polypeptide
- Kcat: 127.2 min⁻¹
- Km: 1.1 mM

B5: SEQ ID NO: 313: GAT polypeptide (protein)
chain: MIEVKPINAEDTYEIRHRILRPNQPLEACKYETDLLRGAFHLGGYYRGKLVSIASFHQAEHPELEGQKQYQLRGMATLEGYREQKAGSTLIRHAEELLRKKGADLLWCNARTSASGYYKKLGFSEQGEVYDIPPTGPHILMYKKLT
modifications: 14_2G11
notes: GAT polypeptide
- Kcat: 69.4 min⁻¹
- Km: 1.4 mM

B6: SEQ ID NO: 307: GAT polypeptide (protein)
chain: MIEVKPINAEDTYEIRHRILRPNQPLEACKYETDLLRGAFHLGGYYRGKLVSIASFHQAEHPELEGQKQYQLRGMATLEEYREQKAGSTLIRHAEELLRKKGADLLWCNARTSASGYYKKLGFSEQGEVYDTPPVGPHILMYKKLT
modifications: 14_10H3
notes: GAT polypeptide
- Kcat: 105.2 min⁻¹
- Km: 0.6 mM

B7: SEQ ID NO: 303: GAT polypeptide (protein)
chain: MIEVKPINAEDTYEIRHRILRPNQPLEACKYETDLLRGAFHLGGYYRGKLISIASFHQAEHPELEGQKQYQLRGMATLEGYREQKAGSTLIRHAEELLRKKGADLLWCNARTSARGYYKKLGFSEQGEVYDIPPTGPHILMYKKLT
modifications: 13_7C1
notes: GAT polypeptide
- Kcat: 48.1 min⁻¹
- Km: 1.5 mM

B8: SEQ ID NO: 306: GAT polypeptide (protein)
chain: MIEVKPINAEDTYEIRHRILRPNQPLEACKYETDLLRGAFHLGGYYRGKLISIASFHQAEHPELEGQKQYQLRGMATLEEYREQKAGSTLIRHAEELLRKKGADLLWCNARTSASGYYKKLGFSEQGEVYDTPPVGPHILMYKKLT
modifications: 14_10C9
notes: GAT polypeptide
- Kcat: 127 min⁻¹
- Km: 0.9 mM

B9: SEQ ID NO: 319: GAT polypeptide (protein)
chain: MIEVKPINAEDTYEIRHRILRPNQPLEACKYETDLLRGAFHLGGYYRGKLVSIASFHQAEHPELEGLKQYQLRGMATLEGYREQKAGSTLIRHAEELLRKKGADLLWCNARTSASGYYKKLGFSEQGEVYDTPPTGPHILMYKKLT
modifications: 14_7A11
notes: GAT polypeptide
- Kcat: 197.2 min⁻¹
- Km: 3.7 mM

B10: SEQ ID NO: 314: GAT polypeptide (protein)
chain: MIEVKPINAEDTYEIRHRILRPNQPLEACKYETDLLRGAFHLGGYYRGKLVSIASFHQAEHPELEGQKQYQLRGMATLEGYREQKAGSTLIRHAEALLRKKGADLLWCNARTSASGYYKKLGFSEQGGVYDIPPAGPHILMYKKLT
modifications: 14_3B2
notes: GAT polypeptide
- Kcat: 68.7 min⁻¹
- Km: 0.85 mM

B11: SEQ ID NO: 309: GAT polypeptide (protein)
chain: MIEVKPINAEDTYEIRHRILRPNQPLEACKYETDLLGSTFHLGGYYRGKLVSIASFHQAEHPELEGQKQYQLRGMATLEEYREQKAGSTLIRHAEALLRKKGADLLWCNARTSASGYYKKLGFSEQGEVYDTPPTGPHILMYKKLT
modifications: 14_11C2
notes: GAT polypeptide
- Kcat: 108.7 min⁻¹
- Km: 1 mM

B12: SEQ ID NO: 296: GAT polypeptide (protein)
chain: MIEVKPINAEDTYEIRHRILRPNQPLEACMYETDLLGGTFHLGGYYQGKLISIASFHKAEHSELEGQKQYQLRGMATLEGYREQKAGSTLIRHAEELLRKKGADLLWCNARTSVSGYYKKLGFSEQGGIYDIPPIGPHILMYKKLT
modifications: 12F5
notes: GAT polypeptide
- Kcat: 3.1 min⁻¹
- Km: 1.8 mM

B13: SEQ ID NO: 315: GAT polypeptide (protein)
chain: MIEVKPINAEDTYEIRHRILRPNQPLEACKYETDLLGSTFHLGGYYRGKLISIASFHQAEHPELEGQKQYQLRGMATLEGYREQKAGSTLIRHAEELLRKKGADLLWCNARTSASGYYKKLGFSEQGEVYDTPPVGPHILMYKKLT
modifications: 14_4H8
notes: GAT polypeptide
- Kcat: 198.8 min⁻¹
- Km: 2 mM

B14: SEQ ID NO: 312: GAT polypeptide (protein)
chain: MIEVKPINAEDTYEIRHRILRPNQPLEACKYETDLLGGTFHLGGYYRGKLISIASFNQAEHPELEGQKQYQLRGMATLEGYREQKAGSTLIRHAEELLRKKGADLLWCNARTSASGYYKKLGFSEQGGVYDIPPVGPHILMYKKLT
modifications: 14_2B6
notes: GAT polypeptide
- Kcat: 34.2 min⁻¹
- Km: 0.63 mM

B15: SEQ ID NO: 305: GAT polypeptide (protein)
chain: MIEVKPINAEDTYEIRHRILRPNQPLEACKYETDLLGGTFHLGGYYRGKLISIASFHQAEHPELEGQKQYQLRGMATLEEYREQKAGSTLIRHAEELLRKKGADLLWCNARTSASGYYKKLGFSEQGEVYDIPPVGPHILMYKKLT
modifications: 13_9F6
notes: GAT polypeptide
- Kcat: 59 min⁻¹
- Km: 1.3 mM

B16: SEQ ID NO: 297: GAT polypeptide (protein)
chain: MIEVKPINAEDTYEIRHRILRPNQPLEACKYETDLLGGTFHLGGYYQGKLISIASFHKAEHSELEGQKQYQLRGMATLEGYREQKAGSTLIRHAEELLRKKGADLLWCNARTSVSGYYKKLGFSEQGEVYDIPPIGPHILMYKKLT
modifications: 12G7
notes: GAT polypeptide
- Kcat: 2.3 min⁻¹
- Km: 3.7 mM

B17: SEQ ID NO: 302: GAT polypeptide (protein)
chain: MIEVKPINAEDTYEIRHRILRPNQPLEACKYETDLLGSTFHLGGYYRGKLISIASFHQAEHPELEGQKQYQLRGMATLEGYREQKAGSTLIRHAEELLRKKGADLLWCNARTSASGYYKKLGFSEQGEVYDIPPTGPHILMYKKLT
modifications: 13_7B12
notes: GAT polypeptide
- Kcat: 68.9 min⁻¹
- Km: 1.7 mM

B18: SEQ ID NO: 317: GAT polypeptide (protein)
chain: MIEVKPINAEDTYEIRHRILRPNQPLEACKYETDLLGGTFHLGGYYRGKLISIASFHQAEHPELEGQKQYQLRGMATLEGYREQKAGSTLIRHAEELLRKKGADLLWCNARTSASGYYKKLGFSEQGGVYDMPPVGPHILMYKKLT
modifications: 14_6B10
notes: GAT polypeptide
- Kcat: 134.7 min⁻¹
- Km: 1.4 mM

B19: SEQ ID NO: 298: GAT polypeptide (protein)
chain: MIEVKPINAEDTYEIRHRILRPNQPLEACMYETDLLGGAFHLGGYYRGKLISIASFHQAEHSELEGQKQYQLRGMATLEGYREQKAGSTLIRHAEELLRKKGADLLWCNARTSASGYYKKLGFSEQGGVYDIPPIGPHILMYKKLT
modifications: 1_2H6
notes: GAT polypeptide
- Kcat: 9.3 min⁻¹
- Km: 0.9 mM

B20: SEQ ID NO: 299: GAT polypeptide (protein)
chain: MIEVKPINAEDTYEIRHRILRPNQPLEACMYETDLLGGTFHLGGYYRGKLISIASFNQAEHPELEGQKQYQLRGMATLEEYREQKAGSTLIRHAEELLRKKGADLLWCNARTSASGYYKKLGFSEQGEVYDIPPVGPHILMHKKLT
modifications: 13_12G12
notes: GAT polypeptide
- Kcat: 36.1 min⁻¹
- Km: 0.69 mM

B21: SEQ ID NO: 310: GAT polypeptide (protein)
chain: MIEVKPINAEDTYEIRHRILRPNQPLEACKYETDLLGGTFHLGGYYRGKLVSIASFHQAEHPELEGQKQYQLRGMATLEGYREQKAGSTLIRHAEALLRKKGADLLWCNARTSASGYYKKLGFREQGGVYDIPPVGPHILMYKKLT
modifications: 14_12D8
notes: GAT polypeptide
- Kcat: 62.1 min⁻¹
- Km: 1 mM

B22: SEQ ID NO: 304: GAT polypeptide (protein)
chain: MIEVKPINAEDTYEIRHRILRPNQPLEACKYETDSLGGTFHLGGYYRGKLISIASFNQAEHPELEGQKQYQLRGMATLEGYREQKAGSTLIRHAEELLRKKGADLLWCNARTSASGYYKKLGFSEQGGVYDIPPVGPHILMYKKLT
modifications: 13_8G6
notes: GAT polypeptide
- Kcat: 33.7 min⁻¹
- Km: 0.61 mM

B23: SEQ ID NO: 311: GAT polypeptide (protein)
chain: MIEVKPINAEDTYEIRHRILRPNQPLEACKYETDLLGGAFHLGGYYRGKLISIASFHQAEHPELEGQKQYQLRGMATLEEYREQKAGSTLIRHAEELLRKKGADLLWCNARTSASGYYKKLGFSEQGEVYDIPPTGPHILMYKKLT
modifications: 14_12H6
notes: GAT polypeptide
- Kcat: 91.1 min⁻¹
- Km: 0.9 mM
